Consider 1 substance from publication PMC4669242 (Bioorganic & medicinal chemistry letters, 2013).

Data set [1] concerns human red blood cells (hRBCs). The data set can be described thus: Hemolysis assay, release of hemoglobin. In kind it is cell-based. The conditions noted are these: hRBCs in PBS pH 7.4, 1 h, 37 °C, OD405; average of two independent experiments.
The next data set relates to E. coli. The data set can be described thus: Leakage of intracellular β-galactosidase. In kind it is cell-based, E. coli (ATCC 25922). The following applies: 1 h of treatment, 37 °C, ONPG, OD405, average of three independent experiments.

Where only a bound is given, the exact number is not on record here.

As for Melittin, the “concentration inducing hemolysis (lowest concentration tested)” value in data set [1] was at most 1000 nM. In addition, the “increase in β-galactosidase release as compared to control buffer” value in the data set on E. coli is 8 fold.
